For assay [1], the target named is T1, mouse Fc-tagged RBD of MERS-CoV (MERS-CoV, strain not named; EMC/2012 …, UniProt K0BRG7).
The target in a further assay is S protein of MERS-CoV (MERS-CoV, strain not named; EMC/2012 …, UniProt K0BRG7).
The target in assay [2] is receptor-binding domain (RBD) of the SARS-CoV S protein, amino acids 318-510, histidine-tagged (SARS-CoV, strain , UniProt P59594). Description: ELISA. In general terms: ELISA stands for enzyme-linked immunosorbent assay.
The target in assay [3] is T1, mouse Fc-tagged RBD of MERS-CoV. The experiment in a line: immunostaining of cells or tissue.
Assay [4] addresses mouse Fc-tagged RBD of Bt-CoV-HKU4 (Bat coronavirus HKU4 (BtCoV/HKU4/2004), UniProt A3EX94). The experiment in a line: immunostaining of cells or tissue.
Another assay concerns the target N protein of MERS-CoV (MERS-CoV, strain , UniProt K9N4V7). Description: immunostaining of cells or tissue.
Assay [5] addresses mouse Fc-tagged RBD of Bt-CoV-HKU5 (Bat coronavirus HKU5 (BtCoV/HKU5/2004), UniProt A3EXD0). The experiment in a line: immunostaining of cells or tissue.

Changes are numbered by the printed parent chain. Read-outs that look alike come from different tables or passages of the source.

B1: 43A9 (antibody, V domains shown)
VH: QVQLQQSGAELARPGASVKLSCNASGYIFSSYWMQWVKQRPGQGLEWIGAIYPGDGDTRYSQKFRGKATVTADKSSSTAYMQLSSLASADSAVYYCARFGDGYYYPMDYWGQGTSVTVSS
VL: DIVMTQAAPSVPVTPGESVSISCRSSKSLLHSNGNTYLYWFLQRPGQSPQLLIYRMSNLASGVPDRFSGSGSGTAFTLRISRVEAEDVGVYYCMQHLEYPFTFGSGTKLEIK
For B1, the binding result (in assay [1]; with S protein of MERS-CoV) was “binds” in each case.

B2: MAb 45E11 (antibody, V domains shown)
VH: QVQLKESGPGLVAPSQSLSITCTVSGFSLTGFGVNWVRQPPGKGLEWLGMIWGDGGTDYNSTLKSRLSFSKDNSKSQVFLKMNSLQTDDTARYYCARAAGTGDYFDYWGQGTTLTVSS
VL: DIQMTQSPASLSASVGETVTITCRASENIYSYLAWYQQKQGKSPQLLVYNAKTLAEGVPSRFSGSGSGTQFSLKINSLQPEDFGSYYCQHHYGTPWTFGGGTKLEIK
Consider B2, for which the binding result in assay [2] is listed as “no binding”; in assay [3], “binds”; in assay [4] it was “no binding”; in the assay with N protein of MERS-CoV, “no binding”; in assay [5], “no binding”.

B3: MAb 45C2 (antibody, V domains shown)
VH: B2 VH with F32Y, T62A, F69I, S70T, Q86L, T87P
VL: B2 VL with Y30D, S63G, N76Y, S85N
For the molecule B3, the binding result in assay [2] is recorded as “no binding”; in assay [3] it was “binds”; in assay [4], “no binding”; in the assay with N protein of MERS-CoV, “no binding”; in assay [5] it was “no binding”.
